# Source: patent publication US20130039936A1 (published 2013)
# B1: POTE 553-561 (peptide)
# peptide: KILEEIESV
# B2: POTE 553-3F (peptide)
# peptide: KIFEEIESV
# B3: POTE 553-7A (peptide)
# peptide: KILEEIASV
# B4: POTE 553-2L (peptide)
# peptide: KLLEEIESV
# B5: POTE 553-1Y (peptide)
# peptide: YILEEIESV
# B6: POTE 252-260 (peptide)
# peptide: KLMAKALLL
# B7: POTE 252-3A (peptide)
# peptide: KLAAKALLL
# B8: POTE 252-3F (peptide)
# peptide: KLFAKALLL
# B9: POTE 252-7A (peptide)
# peptide: KLMAKAALL
# B10: POTE 252-9V (peptide)
# peptide: KLMAKALLV
# B11: POTE 252-1Y (peptide)
# peptide: YLMAKALLL
# B12: POTE 323-331 (peptide)
# peptide: LLLEQNVDV
# B13: POTE 323-3A (peptide)
# peptide: LLAEQNVDV
# B14: POTE 323-3F (peptide)
# peptide: LLFEQNVDV
# B15: POTE 323-7A (peptide)
# peptide: LLLEQNADV
# B16: POTE 323-1Y (peptide)
# peptide: YLLEQNVDV
# B17: POTE 272-280 (peptide)
# peptide: GLTPLLLGV
# Target: T1, HLA-A2 molecule on T2 cells (human)
# T1 construct: also called HLA-A2.1; HLA-A2 molecules
# Test: T2 binding assay (flow cytometry, BB7.2 anti-HLA-A2 stain of peptide-loaded T2 cells)
# Description: Peptide binding capacity to the HLA-A2 molecule was measured by using the T2 cell line according to a protocol described previously (Peters et al., Bioinformatics 19(14):1765-1772, 2003). […] Cells were washed once with cold HBSS containing 0.1% BSA and incubated for 30 minutes at 4° C. with anti-HLA-A2.1 BB7.2 monoclonal antibody (1:40 dilution from hybridoma supernatant). After washing, cells were stained with FITC-labeled goat anti-mouse immunoglobulin (BD, San Jose, Calif.), and the level of HLA expression was measured by flow cytometry. HLA-A2 expression was quantified as fluorescence index (FI) according to the following formula: FI=[(geometric mean fluorescence intensity with peptide-geometric mean fluorescence intensity without peptide)/geometric mean fluorescence intensity without peptide]. Background fluorescence without BB7.2 was subtracted for each individual value. To compare the different peptides, FI_{0.5}, the peptide concentration that increases HLA-A2.1 expression by 50% over no peptide control background, was calculated from the titration curve for each peptide. […]
row,Binder,FI0.5
1,B1,2.6 µM
2,B2,0.3 µM
3,B3,0.2 µM
4,B4,0.1 µM
5,B5,0.024 µM
6,B6,1.5 µM
7,B7,16.9 µM
8,B8,1.5 µM
9,B9,4 µM
10,B10,0.8 µM
11,B11,0.9 µM
12,B12,0.3 µM
13,B13,0.4 µM
14,B14,0.09 µM
15,B15,2.78 µM
16,B16,0.25 µM

# Target: T1, HLA-A2 molecule on T2 cells
# Test: as above
# Remark: another data set of the same source
# Description: Background fluorescence without BB7.2 was subtracted for each individual value. To compare the different peptides, FI_{0.5} (the peptide concentration that increases HLA-A2.1 expression by 50% over no peptide control background) was calculated from the titration curve for each peptide. […] Each assay was performed in triplicate, and data in this figure are representative of two experiments with similar results.
# (§1) Peptide binding capacity to the HLA-A2 molecule was measured by using the T2 cell line according to a protocol described previously (Peters et al., Bioinformatics 19(14):1765-1772, 2003). […] Cells were washed once with cold HBSS containing 0.1% BSA and incubated for 30 minutes at 4° C. with anti-HLA-A2.1 BB7.2 monoclonal antibody (1:40 dilution from hybridoma supernatant). After washing, cells were stained with FITC-labeled goat anti-mouse immunoglobulin (BD, San Jose, Calif.), and the level of HLA expression was measured by flow cytometry. HLA-A2 expression was quantified as fluorescence index (FI) according to the following formula: FI=[(geometric mean fluorescence intensity with peptide-geometric mean fluorescence intensity without peptide)/geometric mean fluorescence intensity without peptide]. Background fluorescence without BB7.2 was subtracted for each individual value. To compare the different peptides, FI_{0.5}, the peptide concentration that increases HLA-A2.1 expression by 50% over no peptide control background, was calculated from the titration curve for each peptide.
# The binding affinity of the predicted peptides with HLA-A2 molecules was measured by the T2 binding assay.
row,Binder,FI0.5
1,B1,5.6 µM
2,B6,1.6 µM
3,B17,0.9 µM
4,B12,0.8 µM

# Target: T1, HLA-A2 molecule on T2 cells
# Test: T2 binding assay, FI0.5 against wild type POTE 252
# Description: as §1
row,Binder,fold lower FI0.5 than POTE 252
1,B10,~2 fold
2,B11,~2 fold

# Target: T1, HLA-A2 molecule on T2 cells
# Test: T2 binding assay, FI0.5 against wild type POTE 323
# Description: as §1
row,Binder,fold better FI0.5 than wild-type POTE 323
1,B14,~3 fold
